Reference: patent publication US12084513 (dated 2024)

T1: human C1s (human)
T1 chain: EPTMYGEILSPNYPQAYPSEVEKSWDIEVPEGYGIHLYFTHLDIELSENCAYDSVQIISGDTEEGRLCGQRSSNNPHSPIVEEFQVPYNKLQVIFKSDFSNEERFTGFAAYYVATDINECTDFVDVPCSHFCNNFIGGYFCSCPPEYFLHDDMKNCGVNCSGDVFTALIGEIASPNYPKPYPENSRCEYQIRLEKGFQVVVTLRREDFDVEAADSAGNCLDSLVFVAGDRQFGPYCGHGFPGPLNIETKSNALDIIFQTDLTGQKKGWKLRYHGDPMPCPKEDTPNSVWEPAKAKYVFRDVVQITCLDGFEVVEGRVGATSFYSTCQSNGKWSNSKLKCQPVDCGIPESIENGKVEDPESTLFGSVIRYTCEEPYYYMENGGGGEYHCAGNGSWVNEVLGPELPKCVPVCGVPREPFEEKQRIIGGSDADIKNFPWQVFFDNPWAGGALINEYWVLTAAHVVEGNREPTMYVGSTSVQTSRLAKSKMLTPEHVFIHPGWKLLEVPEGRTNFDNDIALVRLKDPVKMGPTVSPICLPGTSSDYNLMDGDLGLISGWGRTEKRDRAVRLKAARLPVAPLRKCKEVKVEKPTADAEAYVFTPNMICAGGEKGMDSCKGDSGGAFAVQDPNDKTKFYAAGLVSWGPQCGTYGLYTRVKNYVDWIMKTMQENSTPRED


How the values were obtained:
human C1s [1] = molecular target: T1, human C1s; assay: SPR pH 7.4 37C
human C1s [2] = molecular target: T1, human C1s; assay: SPR pH 5.8 low Ca 37C
human C1s [3] = molecular target: T1, human C1s; assay: SPR pH 7.4 37C
human C1s [4] = molecular target: T1, human C1s; assay: SPR pH 5.8 37C
human C1s [5] = molecular target: T1, human C1s; assay: SPR pH 5.8 37C
human C1s [6] = molecular target: T1, human C1s; assay: SPR pH 7.4 37C
human C1s [7] = molecular target: T1, human C1s; assay: SPR pH 7.4 37C, low response
human C1s [8] = molecular target: T1, human C1s; assay: SPR pH 5.8 low Ca 37C, low response
human C1s [9] = molecular target: T1, human C1s; assay: SPR pH 5.8 37C, low response
human C1s [10] = molecular target: T1, human C1s; assay: SPR pH 7.4 37C
human C1s [11] = molecular target: T1, human C1s; assay: SPR pH 5.8 low Ca 37C, low response
human C1s [12] = molecular target: T1, human C1s; assay: SPR pH 5.8 37C, low response
human C1s [13] = molecular target: T1, human C1s; assay: SPR pH 5.8 37C
human C1s [14] = molecular target: T1, human C1s; assay: SPR pH 5.8 37C
human C1s [15] = molecular target: T1, human C1s; assay: SPR pH 7.4 37C

| Binder | Kd (human C1s [2]) [nM] | Kd (human C1s [3]) [nM] | Kd (human C1s [4]) [nM] | Kd (human C1s [5]) [nM] | Kd (human C1s [6]) [nM] | Kd (human C1s [8]) [nM] | other results |
| --- | --- | --- | --- | --- | --- | --- | --- |
| IPN009VH2/IPN009VK3 (antibody, V domains shown) VH: EVMLVESGGGLVKPGGSLRLSCAASGFTFSNYAMSWVRQAPGKGLEWVATISSGGSHTYYLDSVKGRFTISRDNSKDTLYLQMNSLRAEDTALYYCARLFTGYAMDYWGQGTLVTVSS VL: QIVLTQSPATLSLSPGERATLSCTASSSVSSSYLHWYQQKPGKAPKLWIYSTSNLASGVPSRFSGSGSGTDYTLTISSLQPEDFATYYCHQYYRLPPITFGQGTKLEIK | 3.37 | 1.19 | 0.449 | 0.164 | 0.824 |  | Kd (human C1s [1]): 1.24 nM |
| IPN009VH2/IPN93L0031 (antibody, V domains shown) VH: EVMLVESGGGLVKPGGSLRLSCAASGFTFSNYAMSWVRQAPGKGLEWVATISSGGSHTYYLDSVKGRFTISRDNSKDTLYLQMNSLRAEDTALYYCARLFTGYAMDYWGQGTLVTVSS VL: QIVLTQSPATLSLSPGERATLSCTASSSVSSSYLHWYQQKPGKAPKLWIYSTSNLASGVPSRFSGSGSGTDYTLTISSLQPEDFATYYCHQYHRHHPITFGQGTKLEIK |  |  |  |  |  | 4960 | Kd (human C1s [7]): 0.168 nM; Kd (human C1s [9]): 23.9 nM |
| IPN92H0012/IPN009VK3 (antibody, V domains shown) VH: EVMLVESGGGLVKPGGSLRLSCAASGFTFSNYAMSWVRQAPGKGLEWVATHSSGGSHTYYLDSVKGRFTISRDNSKDTLYLQMNSLRAEDTALYYCARLFTGYAMDYWGQGTLVTVSS VL: QIVLTQSPATLSLSPGERATLSCTASSSVSSSYLHWYQQKPGKAPKLWIYSTSNLASGVPSRFSGSGSGTDYTLTISSLQPEDFATYYCHQYYRLPPITFGQGTKLEIK |  |  |  |  |  |  | Kd (human C1s [1]): 10.5 nM |
| IPN009VH2/IPN93L0021 (antibody, V domains shown) VH: EVMLVESGGGLVKPGGSLRLSCAASGFTFSNYAMSWVRQAPGKGLEWVATISSGGSHTYYLDSVKGRFTISRDNSKDTLYLQMNSLRAEDTALYYCARLFTGYAMDYWGQGTLVTVSS VL: QIVLTQSPATLSLSPGERATLSCTASSSVSSSYLHWYQQKPGKAPKLWIYSTSNLASGVPSRFSGSGSGTDYTLTISSLQPEDFATYYCHQHYRLPPITFGQGTKLEIK | 9.54 | 2.92 | 4.34 | 3.21 | 2.68 |  |  |
| IPN009VH2/IPN93L0024 (antibody, V domains shown) VH: EVMLVESGGGLVKPGGSLRLSCAASGFTFSNYAMSWVRQAPGKGLEWVATISSGGSHTYYLDSVKGRFTISRDNSKDTLYLQMNSLRAEDTALYYCARLFTGYAMDYWGQGTLVTVSS VL: QIVLTQSPATLSLSPGERATLSCTASSSVSSSYLHWYQQKPGKAPKLWIYSTSNLASGVPSRFSGSGSGTDYTLTISSLQPEDFATYYCHQYYRLHPITFGQGTKLEIK | 22.3 | 3.4 | 4.32 | 3.87 | 2.46 |  |  |
| IPN92H0033/IPN009VK3 (antibody, V domains shown) VH: EVMLVESGGGLVKPGGSLRLSCAASGFTFSNYAMSWVRQAPGKGLEWVATISSGGSHTYYLDSVKGRFTISRDNSKDTLYLQMNSLRAEDTALYYCARLFTGHAMDYWGQGTLVTVSS VL: QIVLTQSPATLSLSPGERATLSCTASSSVSSSYLHWYQQKPGKAPKLWIYSTSNLASGVPSRFSGSGSGTDYTLTISSLQPEDFATYYCHQYYRLPPITFGQGTKLEIK | 9.57 | 1.01 | 0.931 | 0.515 | 0.79 |  |  |

Second part, led by results:

| Kd (human C1s [2]) [nM] | Kd (human C1s [3]) [nM] | Kd (human C1s [4]) [nM] | Kd (human C1s [5]) [nM] | Kd (human C1s [6]) [nM] | Kd (human C1s [8]) [nM] | Binder | other results |
| --- | --- | --- | --- | --- | --- | --- | --- |
|  | 1.11 | 83.1 |  |  |  | IPN92H0288/IPN93L0211 (antibody, V domains shown) VH: EVMLVESGGGLVKPGGSLRLSCAASGFTFSNYAMSWVRQAPGKGLEWVATISSGGSHTYELDSVDGRFTISRDNSKDTLYLQMNSLRAEDTALYYCARLFTKHAMDYWGQGTLVTVSS VL: QIVLTQSPATLSLSPGERATLSCTASSEVSESYLHWYQQKPGKAPKLWIYSTSNLASGVPSRFSGSGSGTDYTLTISSLQPEDFATYYCHQYYRLHPITFGQGTKLEIK | Kd (human C1s [10]): 1.67 nM; Kd (human C1s [11]): 10.4 nM; Kd (human C1s [12]): 16.5 nM |
|  | 0.611 | 40.1 |  |  |  | IPN92H0288/IPN93L0058 (antibody, V domains shown) VH: EVMLVESGGGLVKPGGSLRLSCAASGFTFSNYAMSWVRQAPGKGLEWVATISSGGSHTYELDSVDGRFTISRDNSKDTLYLQMNSLRAEDTALYYCARLFTKHAMDYWGQGTLVTVSS VL: QIVLTQSPATLSLSPGERATLSCTASSEVSSSYLHWYQQKPGKAPKLWIYSTSNLASGVPSRFSGSGSGTDYTLTISSLQPEDFATYYCHQYYRLHPITFGQGTKLEIK | Kd (human C1s [10]): 0.838 nM; Kd (human C1s [13]): 19.5 nM; Kd (human C1s [11]): 7.96 nM |
|  |  |  |  |  | 13.9 | IPN92H0033/IPN93L0031 (antibody, V domains shown) VH: EVMLVESGGGLVKPGGSLRLSCAASGFTFSNYAMSWVRQAPGKGLEWVATISSGGSHTYYLDSVKGRFTISRDNSKDTLYLQMNSLRAEDTALYYCARLFTGHAMDYWGQGTLVTVSS VL: QIVLTQSPATLSLSPGERATLSCTASSSVSSSYLHWYQQKPGKAPKLWIYSTSNLASGVPSRFSGSGSGTDYTLTISSLQPEDFATYYCHQYHRHHPITFGQGTKLEIK | Kd (human C1s [7]): 3.59 nM; Kd (human C1s [9]): 2.59 nM |
|  |  |  |  |  | 7.59 | IPN92H0033/IPN93L0021 (antibody, V domains shown) VH: EVMLVESGGGLVKPGGSLRLSCAASGFTFSNYAMSWVRQAPGKGLEWVATISSGGSHTYYLDSVKGRFTISRDNSKDTLYLQMNSLRAEDTALYYCARLFTGHAMDYWGQGTLVTVSS VL: QIVLTQSPATLSLSPGERATLSCTASSSVSSSYLHWYQQKPGKAPKLWIYSTSNLASGVPSRFSGSGSGTDYTLTISSLQPEDFATYYCHQHYRLPPITFGQGTKLEIK | Kd (human C1s [14]): 5.01 nM; Kd (human C1s [15]): 1.92 nM |
|  | 2.51 | 11.9 |  |  | 5.3 | IPN92H0033/IPN93L0024 (antibody, V domains shown) VH: EVMLVESGGGLVKPGGSLRLSCAASGFTFSNYAMSWVRQAPGKGLEWVATISSGGSHTYYLDSVKGRFTISRDNSKDTLYLQMNSLRAEDTALYYCARLFTGHAMDYWGQGTLVTVSS VL: QIVLTQSPATLSLSPGERATLSCTASSSVSSSYLHWYQQKPGKAPKLWIYSTSNLASGVPSRFSGSGSGTDYTLTISSLQPEDFATYYCHQYYRLHPITFGQGTKLEIK | Kd (human C1s [14]): 8.66 nM; Kd (human C1s [15]): 2.9 nM |
|  | 1.34 | 38.1 |  |  |  | IPN92H0307/IPN93L0058 (antibody, V domains shown) VH: EVMLVESGGGLVKPGGSLRLSCAASGFEFENYAMSWVRQAPGKGLEWVATISSGGSHTYELDSVDGRFTISRDNSKDTLYLQMNSLRAEDTALYYCARLFTKHAMDYWGQGTLVTVSS VL: QIVLTQSPATLSLSPGERATLSCTASSEVSSSYLHWYQQKPGKAPKLWIYSTSNLASGVPSRFSGSGSGTDYTLTISSLQPEDFATYYCHQYYRLHPITFGQGTKLEIK | Kd (human C1s [10]): 1.93 nM; Kd (human C1s [13]): 19.5 nM; Kd (human C1s [11]): 4.95 nM |
